In general, Kd refers to the equilibrium constant for the complex coming apart. The low end stands for higher affinity, the high end for lower affinity.

The experiment has as its target Dendritic cell-specific intercellular adhesion molecule 3-grabbing nonintegrin (DC-SIGN), on the Biacore chip (UniProt Q9NNX6). Kind of experiment: SPR. (SPR reads the build-up and loss of mass on a sensor chip optically.)
UniProt Q9NNX6, sequence (Q9NNX6 whole entry): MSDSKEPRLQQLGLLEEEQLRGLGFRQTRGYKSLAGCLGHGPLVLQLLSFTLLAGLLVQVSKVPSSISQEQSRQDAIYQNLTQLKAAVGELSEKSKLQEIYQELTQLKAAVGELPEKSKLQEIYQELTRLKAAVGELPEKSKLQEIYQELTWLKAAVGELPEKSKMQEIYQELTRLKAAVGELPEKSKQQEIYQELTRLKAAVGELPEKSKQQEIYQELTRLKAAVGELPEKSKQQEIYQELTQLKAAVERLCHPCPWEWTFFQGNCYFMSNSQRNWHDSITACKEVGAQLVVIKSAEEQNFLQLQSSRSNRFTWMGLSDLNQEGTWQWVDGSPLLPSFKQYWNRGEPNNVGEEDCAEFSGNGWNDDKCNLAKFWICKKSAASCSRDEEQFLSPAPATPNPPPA

In the case of “Surface layer protein B (SlpB) from Levilactobacillus brevis JCM 1059 (natural protein)”, the Kd is 30.3 nM.

Values taken from doi:10.1101/2023.04.06.534471.
